{"source": "paper PMC6834741", "note": "Where “and” joins values, the source holds several entries; their conditions need not be identical. Equal values may be shown once.", "data": [{"molecular_target": "His-tagged recombinant human FcγRIIIa (158 V) (human)", "assay": "SPR; Biacore T200; His-tagged FcγR captured by an anti-His antibody on a CM5 chip; dilution series of antibody as analyte; 1:1 kinetic binding model; triplicate", "units": {"Kd": "µM"}, "values": [{"substance": "ABP 980 (antibody)", "Kd": 0.0913}, {"substance": "Trastuzumab (EU) (antibody)", "Kd": 0.193}, {"substance": "Trastuzumab (US) (antibody)", "Kd": 0.146}]}, {"molecular_target": "His-tagged recombinant human FcγRIIIb (human) (UniProt O75015)", "sequence (O75015 17-200)": "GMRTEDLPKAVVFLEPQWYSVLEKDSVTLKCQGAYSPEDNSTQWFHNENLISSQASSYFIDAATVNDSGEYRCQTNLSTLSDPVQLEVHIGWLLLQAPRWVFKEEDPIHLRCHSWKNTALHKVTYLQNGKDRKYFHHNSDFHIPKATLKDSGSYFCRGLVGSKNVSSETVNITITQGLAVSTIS", "assay": "SPR; Biacore T200; His-tagged FcγR captured by an anti-His antibody on a CM5 chip; dilution series of antibody as analyte; 1:1 kinetic binding model; triplicate", "values": [{"substance": "ABP 980 (antibody)", "Kd": "8.14 µM and 8.29 µM"}, {"substance": "Trastuzumab (EU) (antibody)", "Kd": "13.8 µM"}, {"substance": "Trastuzumab (US) (antibody)", "Kd": "11.8 µM"}]}]}
